Test results taken from publication doi:10.1101/2023.11.29.569174v1.

Assays:
Test in all cases: purified protein
[1] = substrate: CC(C)=CCC/C(C)=C/COP(=O)(O)OP(=O)(O)O; settings: pH 8.0, 22 °C, 10 mM Mg acetate, 40 mM NaCl, 0.01% Tween 20
[2] = substrate: C=C(C)CCO[P@@](=O)(O)OP(=O)(O)O; settings: pH 8.0, 22 °C, 10 mM Mg acetate, 40 mM NaCl, 0.01% Tween 20
[3] = substrate: CC(C)=CCC/C(C)=C/CC/C(C)=C/CC/C(C)=C/COP(=O)(O)OP(=O)(O)O; settings: pH 8.0, 22 °C, 10 mM Mg acetate, 40 mM NaCl, 0.01% Tween 20
[4] = substrate: CC(C)=CCOP(=O)(O)OP(=O)(O)O; settings: pH 8.0, 22 °C, 10 mM Mg acetate, 40 mM NaCl, 0.01% Tween 20
[5] = substrate: C[C@@](O)(CCOP(=O)(O)OP(=O)(O)O)CC(=O)O; settings: pH 8.0, 22 °C, 10 mM Mg acetate, 40 mM NaCl, 0.01% Tween 20
[6] = substrate: CC(C)=CCC/C(C)=C/CC/C(C)=C/CO[P@@](=O)(O)OP(=O)(O)O; settings: pH 8.0, 22 °C, 10 mM Mg acetate, 40 mM NaCl, 0.01% Tween 20
[7] = substrate: Nc1nc2c(ncn2[C@H]2C[C@H](O)[C@@H](COP(=O)(O)OP(=O)(O)OP(=O)(O)O)O2)c(=O)[nH]1; settings: pH 8.0, 22 °C, 10 mM Mg acetate, 40 mM NaCl

| Protein | Km [1] | kcat [1] | Km [2] | kcat [2] | Km [3] | kcat [3] | Km [4] | kcat [4] | Km [5] | kcat [5] | Km [6] | kcat [6] | Km [7] | kcat [7] |
| --- | --- | --- | --- | --- | --- | --- | --- | --- | --- | --- | --- | --- | --- | --- |
| NUDT18 (Homo sapiens) (protein) MASEGLAGALASVLAGQGSSVHSCDSAPAGEPPAPVRLRKNVCYVVLAVFLSEQDEVLLIQEAKRECRGSWYLPAGRMEPGETIVEALQREVKEEAGLHCEPETLLSVEERGPSWVRFVFLARPTGGILKTSKEADAESLQAAWYPRTSLPTPLRAHDILHLVELAAQYRQQARHPLILPQELPCDLVCQRLVATFTSAQTVWVLVGTVGMPHLPVTACGLDPMEQRGGMKMAVLRLLQECLTLHHLVVEIKGLLGLQHLGRDHSDGICLNVLVTVAFRSPGIQDEPPKVRGENFSWWKVMEEDLQSQLLQRLQGSSVVPVNR | 3.7 ± 0.4 µM | 0.78 s⁻¹ | 12.4 ± 2.6 µM | 0.87 s⁻¹ | 17.9 ± 3.4 µM | 0.15 s⁻¹ | 9.8 ± 2.9 µM | 0.94 s⁻¹ | 26.8 ± 2.8 µM | 0.55 s⁻¹ | 18.8 ± 3.9 µM | 0.52 s⁻¹ |  |  |
| NUDT15 (Homo sapiens) (protein) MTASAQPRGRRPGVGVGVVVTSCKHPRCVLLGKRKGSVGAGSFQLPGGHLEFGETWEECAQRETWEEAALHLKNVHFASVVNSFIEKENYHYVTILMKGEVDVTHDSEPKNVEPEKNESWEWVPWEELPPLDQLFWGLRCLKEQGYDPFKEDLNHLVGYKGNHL | 18.7 ± 0.2 µM | 0.72 s⁻¹ | 63.6 ± 19.4 µM | 0.49 s⁻¹ |  |  | 159.3 ± 40.5 µM | 0.94 s⁻¹ |  |  |  |  | 21 µM | 0.637 s⁻¹ |
